Experimental data published in patent publication EP3344659B1 (Immunwork Inc., dated 2025).

Molecular target: T1, human fibrinogen (human, UniProt P02671 20-629; P02675 31-491; P02679 27-437, limits assumed)
T1 construct: Bought from Sigma and coated on 96-well plates; also called fibrinogen plate
T1 sequence (looked up) 1: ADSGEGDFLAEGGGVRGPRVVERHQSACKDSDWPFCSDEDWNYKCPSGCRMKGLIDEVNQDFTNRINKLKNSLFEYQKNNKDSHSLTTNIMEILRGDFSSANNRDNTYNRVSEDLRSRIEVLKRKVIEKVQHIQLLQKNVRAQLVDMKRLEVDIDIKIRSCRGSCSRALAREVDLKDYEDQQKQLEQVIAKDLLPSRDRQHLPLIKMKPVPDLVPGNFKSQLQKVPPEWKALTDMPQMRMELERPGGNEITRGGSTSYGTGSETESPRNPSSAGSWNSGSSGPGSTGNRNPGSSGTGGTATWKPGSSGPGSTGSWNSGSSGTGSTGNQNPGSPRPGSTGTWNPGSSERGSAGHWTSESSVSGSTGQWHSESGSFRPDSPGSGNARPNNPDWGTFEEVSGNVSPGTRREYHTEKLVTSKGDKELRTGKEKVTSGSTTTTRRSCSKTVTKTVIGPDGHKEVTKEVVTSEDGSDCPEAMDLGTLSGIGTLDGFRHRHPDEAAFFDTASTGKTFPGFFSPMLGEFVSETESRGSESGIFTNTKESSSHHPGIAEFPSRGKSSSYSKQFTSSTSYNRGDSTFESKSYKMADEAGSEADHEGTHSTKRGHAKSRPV
T1 sequence (looked up) 2: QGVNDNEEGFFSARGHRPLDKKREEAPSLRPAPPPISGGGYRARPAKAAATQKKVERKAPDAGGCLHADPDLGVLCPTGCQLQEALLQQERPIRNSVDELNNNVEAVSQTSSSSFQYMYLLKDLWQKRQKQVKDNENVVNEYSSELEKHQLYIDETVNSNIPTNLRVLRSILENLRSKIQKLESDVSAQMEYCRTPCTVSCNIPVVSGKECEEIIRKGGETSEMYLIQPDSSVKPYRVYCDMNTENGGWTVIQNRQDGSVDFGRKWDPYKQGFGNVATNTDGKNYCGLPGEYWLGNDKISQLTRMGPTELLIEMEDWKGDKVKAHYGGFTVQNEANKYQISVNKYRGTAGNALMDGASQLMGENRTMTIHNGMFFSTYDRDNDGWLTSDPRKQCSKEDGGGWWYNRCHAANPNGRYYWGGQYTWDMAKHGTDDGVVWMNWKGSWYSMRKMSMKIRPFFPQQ
T1 sequence (looked up) 3: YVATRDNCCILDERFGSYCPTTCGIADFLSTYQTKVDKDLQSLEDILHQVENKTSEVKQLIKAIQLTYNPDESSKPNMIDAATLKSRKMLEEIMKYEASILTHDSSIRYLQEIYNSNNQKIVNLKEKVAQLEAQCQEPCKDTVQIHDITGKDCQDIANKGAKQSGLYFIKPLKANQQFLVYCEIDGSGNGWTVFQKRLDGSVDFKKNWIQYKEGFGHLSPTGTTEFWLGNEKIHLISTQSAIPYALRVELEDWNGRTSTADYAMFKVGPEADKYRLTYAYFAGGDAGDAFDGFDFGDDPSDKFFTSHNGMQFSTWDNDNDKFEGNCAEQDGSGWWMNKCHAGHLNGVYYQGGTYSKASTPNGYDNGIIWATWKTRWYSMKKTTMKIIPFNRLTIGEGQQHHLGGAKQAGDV
Test: ELISA on fibrinogen-coated plate (1 µg/well)

B1: 102-10 scFv specific for human fibrin (scFv)
scFv: DIQMTQSPSSLSASLGGKVTITCKASQDINKYIAWFQHKPGKGPRLLIHYTSTLQPGIPSRFSGSGSGRDYSFSISNLEPEDLATYYCLQYDNLTWTFGGGTKLEIKRGSTSGSGKPGSGEGSTKGQIQLVQSGPELKKPGETVKISCKASGYTFTNYGMNWVKQAPGKGLKWMGWINTYTGEATYADDFKGRFAFSLETSANTAYVQINNLKNEDTATYFCARLMDYWGQGTSVTVSSGGGGSGGGGSC
binding result: no binding
